Results from paper PMC7430671 (2020).

B1: RapZ_(1–279), BACTH fusion [E. coli] / full-length RNase E (RneFL), BACTH fusion [E. coli] (parent complex)
chain 1: MVLMIVSGRSGSGKSVALRALEDMGFYCVDNLPVVLLPDLARTLADREISAAVSIDVRNMPESPEIFEQAMSNLPDAFSPQLLFLDADRNTLIRRYSDTRRLHPLSSKNLSLESAIDKESDLLEPLRSRADLIVDTSEMSVHELAEMLRTRLLGKRERELTMVFESFGFKHGIPIDADYVFDVRFLPNPHWDPKLRPMTGLDKPVAAFLDRHTEVHNFIYQTRSYLELWLPMLETNNRSYLTVAIGCTGGKHRSVYIAEQLADYFRSRGKNVQSRHRTL
chain 2: not shown
B2: RapZ_(1–279), BACTH fusion [E. coli] / itself (parent complex)
chain: B1 chain 1

Variants of: B1
Test: BACTH assay (β-galactosidase activity); top panel; T18-RapZ1-279 variant with T25-RneFL (pYG100); mean ± SD, n ≥ 2; parent: 1.7e+03; read off a plot

Row | Variant | response
1 | chain 1 T278G | ~980 Miller units
2 | chain 1 T278G, chain 1 L279G | ~50 Miller units
3 | chain 1 L279G | ~100 Miller units

Variants of: B2
Test: BACTH assay (self-interaction; β-galactosidase activity); bottom panel; same RapZ1-279 variant fused to T18 and to T25; mean ± SD, n ≥ 2; parent: 4.1e+03; read off a plot

Row | Variant | response
4 | chain 1 T278G | ~4000 Miller units
5 | chain 1 L279G | ~3300 Miller units
